Reference: patent US20220306739A1 (Janssen / Centocor, published 2022)
Read-outs that look alike come from different tables or passages of the source.

What was measured:
CD33 [1] = biological target: T1, CD33 (human, UniProt P20138 18-364); experiment: FACS binding to MOLM-13 cells (CD33 high), MFI
T1 construct: whole, on cells; also called CD33 on MOLM-13, Kasumi-1, OCI-AML-3 and Kasumi-3 cells

CD33 [2] = biological target: T1, CD33; experiment: FACS binding to Kasumi-1 cells (CD33 med), MFI
CD33 [3] = biological target: T1, CD33; experiment: FACS binding to OCI-AML-3 cells (CD33 low), MFI
[4] = biological target: T2, B cell maturation antigen (BCMA) (UniProt Q02223 1-184, limits assumed); experiment: cell-based or functional assay
T2 sequence (looked up): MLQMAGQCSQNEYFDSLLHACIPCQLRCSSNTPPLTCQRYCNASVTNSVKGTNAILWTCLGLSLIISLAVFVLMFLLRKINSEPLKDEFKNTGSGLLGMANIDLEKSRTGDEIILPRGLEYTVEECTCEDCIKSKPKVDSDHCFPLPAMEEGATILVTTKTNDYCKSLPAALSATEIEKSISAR

[5] = biological target: T2, B cell maturation antigen (BCMA); experiment: cell-based or functional assay; remark: listed apart in the source
[6] = biological target: T2, B cell maturation antigen (BCMA); experiment: cell-based or functional assay; remark: listed apart in the source
CD123 [7] = biological target: T3, CD123 (human, UniProt P26951 19-378); experiment: flow cytometry, % Binding on Kasumi-3 cells (CD123 expressing cell line)
T3 construct: whole, on cells; also called IL3RA; interleukin-3 receptor
T3 sequence (P26951 19-378): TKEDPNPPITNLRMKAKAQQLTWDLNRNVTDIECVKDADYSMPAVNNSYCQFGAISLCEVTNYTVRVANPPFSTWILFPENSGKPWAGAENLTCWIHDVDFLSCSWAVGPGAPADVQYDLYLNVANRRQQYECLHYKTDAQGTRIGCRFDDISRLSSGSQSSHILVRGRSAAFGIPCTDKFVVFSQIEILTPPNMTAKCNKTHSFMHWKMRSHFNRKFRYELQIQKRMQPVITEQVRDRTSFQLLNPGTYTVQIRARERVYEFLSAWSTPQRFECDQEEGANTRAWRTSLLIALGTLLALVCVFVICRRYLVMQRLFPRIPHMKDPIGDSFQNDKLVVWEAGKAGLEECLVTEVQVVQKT
Excerpt: (§1) Cells were visualized on forward and sideward scatter and doublets were excluded. No secondary antibody control was used to establish background fluorescence and to gate on specific population. Background value was subtracted from main samples to get specific binding value.

CD123 [8] = biological target: T3, CD123; experiment: flow cytometry, % binding of bispecific antibody to Kasumi-3 cells (CD123 expressing)
Excerpt: as §1

CD123 [9] = biological target: T3, CD123; experiment: flow cytometry, % Binding on Kasumi-3 cells (TAA expressing cell line); same graph as FIG. 30A
Excerpt: as §1

CD123 [10] = biological target: T3, CD123; experiment: flow cytometry, % Binding; graph under the Kasumi-3 histogram, Kasumi-3 cells by legend paragraph 83
Excerpt: as §1

[11] = biological target: T2, B cell maturation antigen (BCMA); experiment: cell-based or functional assay; remark: listed apart in the source
[12] = biological target: T2, B cell maturation antigen (BCMA); experiment: cell-based or functional assay; remark: listed apart in the source

T1 sequence (P20138 18-364): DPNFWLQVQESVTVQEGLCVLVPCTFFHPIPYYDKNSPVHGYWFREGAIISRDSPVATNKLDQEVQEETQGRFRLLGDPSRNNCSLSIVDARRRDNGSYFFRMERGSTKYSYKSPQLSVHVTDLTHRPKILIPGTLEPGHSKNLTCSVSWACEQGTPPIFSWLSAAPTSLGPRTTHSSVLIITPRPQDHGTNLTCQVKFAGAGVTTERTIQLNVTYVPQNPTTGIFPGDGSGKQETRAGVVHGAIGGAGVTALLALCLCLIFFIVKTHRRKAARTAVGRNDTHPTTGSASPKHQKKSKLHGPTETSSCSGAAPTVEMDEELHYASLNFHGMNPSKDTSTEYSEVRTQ

B1: anti-CD33 antibody (clone C33B904) (antibody, V domains shown)
VH: EVQLVESGGGLVQPGRSLRLSCAASGFTFDDYAMHWVRQAPGKGLEWVSGIGWSGGSIVYADSVKGRFTISRDNAKNSLYLQMNSLRAEDTALYYCAKDSPYGDFFDYWGQGTLVTVSS
VL: DIVMTQSPDSLAVSLGERATINCKSSQTVFYSSNNKNYLAWYQQKPGQPPKLLISWASTRKSGVPDRFSGSGSGTDFTLTVSSLQAEDVAVYYCQHYYSTPYTFGQGTKLEIK
CD33 [1]
  EC50: ~134 nM
CD33 [2]
  EC50: 82.2 nM
CD33 [3]
  EC50: 16.4 nM

B2: anti-TRGV9/anti-BCMA bispecific antibody (VG9SB10SC1087_P18_C12-Fab RF, BCMA-scFv (BCMB519-scFv)) (BCV9B101.001) (bispecific antibody, human IgG1, kappa, L234A L235A)
heavy: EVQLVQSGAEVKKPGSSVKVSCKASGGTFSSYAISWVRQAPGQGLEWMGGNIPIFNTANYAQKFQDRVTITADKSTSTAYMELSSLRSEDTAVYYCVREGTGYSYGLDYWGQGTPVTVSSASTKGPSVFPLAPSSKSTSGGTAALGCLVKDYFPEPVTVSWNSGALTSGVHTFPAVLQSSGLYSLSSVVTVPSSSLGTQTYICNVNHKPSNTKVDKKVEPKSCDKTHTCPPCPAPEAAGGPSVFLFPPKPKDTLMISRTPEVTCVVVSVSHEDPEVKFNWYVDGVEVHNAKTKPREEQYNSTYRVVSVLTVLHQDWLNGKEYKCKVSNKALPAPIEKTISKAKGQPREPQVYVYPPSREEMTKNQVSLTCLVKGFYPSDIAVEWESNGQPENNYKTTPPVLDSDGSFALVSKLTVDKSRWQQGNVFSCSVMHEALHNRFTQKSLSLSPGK
light: EIVMTQSPLSSPVTLGQPASISCRSSQSLIHSDGNTYLSWLQQRPGQPPRLLIYKISNRFSGVPDRFSGSGAGTDFTLKISRVEAEDVGIYYCMQAKQFPITFGQGTKVDIKRTVAAPSVFIFPPSDEQLKSGTASVVCLLNNFYPREAKVQWKVDNALQSGNSQESVTEQDSKDSTYSLSSTLTLSKADYEKHKVYACEVTHQGLSSPVTKSFNRGEC
scFv: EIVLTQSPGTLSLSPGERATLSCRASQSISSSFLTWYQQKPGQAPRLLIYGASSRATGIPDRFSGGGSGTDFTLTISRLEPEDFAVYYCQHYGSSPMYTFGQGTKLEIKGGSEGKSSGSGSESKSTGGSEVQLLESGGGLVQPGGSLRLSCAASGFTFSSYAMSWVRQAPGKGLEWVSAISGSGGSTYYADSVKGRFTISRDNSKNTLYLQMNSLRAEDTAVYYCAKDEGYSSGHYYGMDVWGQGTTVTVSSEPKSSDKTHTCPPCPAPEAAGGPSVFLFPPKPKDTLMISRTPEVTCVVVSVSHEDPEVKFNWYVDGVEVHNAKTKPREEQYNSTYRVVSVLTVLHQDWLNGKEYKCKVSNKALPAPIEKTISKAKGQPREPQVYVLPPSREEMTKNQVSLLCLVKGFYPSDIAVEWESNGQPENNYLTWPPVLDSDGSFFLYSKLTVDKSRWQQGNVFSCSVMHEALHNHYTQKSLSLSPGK
[4]
  EC50 of γδ T-cell mediated cytotoxicity of H929 tumor cells: 2.65 nM

B3: anti-TRGV9/anti-BCMA bispecific antibody (VG9SB10SC1087_P19_C03-Fab RF, BCMA-scFv (BCMB519-scFv)) (BCV9B103.001) (bispecific antibody, human IgG1, kappa, L234A L235A)
heavy: QVQLQESGPGLVKPSQTLSLTCTVSGGSISSGGSYWSWIRQHPGKGLEWIGYIYNSGSTYYNPSLKSRVSMSVDTSKNQFSLKLSSVTAADTAVYYCARDSNYEWFFDLWGPGTLVTVSSASTKGPSVFPLAPSSKSTSGGTAALGCLVKDYFPEPVTVSWNSGALTSGVHTFPAVLQSSGLYSLSSVVTVPSSSLGTQTYICNVNHKPSNTKVDKKVEPKSCDKTHTCPPCPAPEAAGGPSVFLFPPKPKDTLMISRTPEVTCVVVSVSHEDPEVKFNWYVDGVEVHNAKTKPREEQYNSTYRVVSVLTVLHQDWLNGKEYKCKVSNKALPAPIEKTISKAKGQPREPQVYVYPPSREEMTKNQVSLTCLVKGFYPSDIAVEWESNGQPENNYKTTPPVLDSDGSFALVSKLTVDKSRWQQGNVFSCSVMHEALHNRFTQKSLSLSPGK
light: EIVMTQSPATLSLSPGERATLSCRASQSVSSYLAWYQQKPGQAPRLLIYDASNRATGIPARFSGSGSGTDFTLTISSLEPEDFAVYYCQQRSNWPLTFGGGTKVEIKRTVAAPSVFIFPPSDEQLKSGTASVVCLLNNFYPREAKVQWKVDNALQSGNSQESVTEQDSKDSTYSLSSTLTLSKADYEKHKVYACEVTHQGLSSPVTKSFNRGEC
scFv: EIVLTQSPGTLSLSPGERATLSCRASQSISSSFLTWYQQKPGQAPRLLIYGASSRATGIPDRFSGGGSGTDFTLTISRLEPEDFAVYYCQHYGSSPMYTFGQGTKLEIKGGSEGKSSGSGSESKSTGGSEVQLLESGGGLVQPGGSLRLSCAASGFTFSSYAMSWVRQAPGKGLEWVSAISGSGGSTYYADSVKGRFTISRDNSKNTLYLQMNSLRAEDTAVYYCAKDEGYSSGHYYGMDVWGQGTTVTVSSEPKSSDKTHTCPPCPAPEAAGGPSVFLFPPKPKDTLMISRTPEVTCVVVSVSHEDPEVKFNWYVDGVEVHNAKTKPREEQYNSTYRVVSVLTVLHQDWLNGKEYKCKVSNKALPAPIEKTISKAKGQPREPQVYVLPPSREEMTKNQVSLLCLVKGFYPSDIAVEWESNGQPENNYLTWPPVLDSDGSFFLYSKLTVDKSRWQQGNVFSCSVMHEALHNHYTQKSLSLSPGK
[5]
  EC50 of γδ T-cell mediated cytotoxicity of H929 tumor cells: 5.84 nM

B4: anti-TRGV9/anti-BCMA bispecific antibody (VG9SB10SC1087_P18_D08-Fab RF, BCMA-scFv (BCMB519-scFv)) (BCV9B100.001) (bispecific antibody, human IgG1, kappa, L234A L235A)
heavy: EVQLVQSGAEVKKPGSSVKVSCKASGDTFNNYAISWVRQAPGQGLEWMGGIIPFFGTPDYAQKFQGRVTITADKSTSTAYMELSGLRSEDTAVYYCARPGSGSPDYYYYDMDVWGQGTTVTVSSASTKGPSVFPLAPSSKSTSGGTAALGCLVKDYFPEPVTVSWNSGALTSGVHTFPAVLQSSGLYSLSSVVTVPSSSLGTQTYICNVNHKPSNTKVDKKVEPKSCDKTHTCPPCPAPEAAGGPSVFLFPPKPKDTLMISRTPEVTCVVVSVSHEDPEVKFNWYVDGVEVHNAKTKPREEQYNSTYRVVSVLTVLHQDWLNGKEYKCKVSNKALPAPIEKTISKAKGQPREPQVYVYPPSREEMTKNQVSLTCLVKGFYPSDIAVEWESNGQPENNYKTTPPVLDSDGSFALVSKLTVDKSRWQQGNVFSCSVMHEALHNRFTQKSLSLSPGK
light: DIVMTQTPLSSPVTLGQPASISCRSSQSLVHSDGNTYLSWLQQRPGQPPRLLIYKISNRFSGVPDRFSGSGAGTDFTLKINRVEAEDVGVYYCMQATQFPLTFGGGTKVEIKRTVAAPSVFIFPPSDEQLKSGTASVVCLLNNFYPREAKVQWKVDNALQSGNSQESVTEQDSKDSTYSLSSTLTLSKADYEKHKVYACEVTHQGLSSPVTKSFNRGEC
scFv: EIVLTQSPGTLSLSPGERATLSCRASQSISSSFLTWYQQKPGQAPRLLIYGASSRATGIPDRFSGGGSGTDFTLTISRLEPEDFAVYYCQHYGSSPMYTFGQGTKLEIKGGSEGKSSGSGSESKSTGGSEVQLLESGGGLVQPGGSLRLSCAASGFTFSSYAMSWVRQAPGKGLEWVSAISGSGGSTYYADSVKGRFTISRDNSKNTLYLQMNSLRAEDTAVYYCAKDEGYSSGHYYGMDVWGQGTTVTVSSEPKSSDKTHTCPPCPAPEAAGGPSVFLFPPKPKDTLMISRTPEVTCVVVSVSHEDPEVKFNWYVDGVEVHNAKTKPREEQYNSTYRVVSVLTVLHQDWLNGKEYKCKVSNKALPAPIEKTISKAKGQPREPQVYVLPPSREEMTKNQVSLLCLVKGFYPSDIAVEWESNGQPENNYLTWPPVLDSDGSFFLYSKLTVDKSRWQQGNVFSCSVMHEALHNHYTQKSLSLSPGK
[6]
  EC50 of γδ T-cell mediated cytotoxicity of H929 tumor cells: 0.81 nM

B5: VG1 (anti-TRGV9/anti-CD123 bispecific antibody) (bispecific antibody, human IgG4 S228P, kappa, F234A L235A)
heavy 1: EVQLQQSGAELARPGASVKLSCKASGFTFTDHYINWVKQRTGQGLEWIGQIYPGDGNTYYNQKFKGKATLTADKSSSTAYMQLSSLTSEDSAVYFCAPNYGDYTIDFWGQGTSVTVSSASTKGPSVFPLAPCSRSTSESTAALGCLVKDYFPEPVTVSWNSGALTSGVHTFPAVLQSSGLYSLSSVVTVPSSSLGTKTYTCNVDHKPSNTKVDKRVESKYGPPCPPCPAPEAAGGPSVFLFPPKPKDTLMISRTPEVTCVVVDVSQEDPEVQFNWYVDGVEVHNAKTKPREEQFNSTYRVVSVLTVLHQDWLNGKEYKCKVSNKGLPSSIEKTISKAKGQPREPQVYTLPPSQEEMTKNQVSLSCAVKGFYPSDIAVEWESNGQPENNYKTTPPVLDSDGSFFLVSRLTVDKSRWQEGNVFSCSVMHEALHNRFTQKSLSLSLGK
light 1: DIVMSQSPSSLAVSVGEKVTMSCKSSQSLLYSSNQKNYLAWYQQKPGQSPKLLIYWASTRESGVPDRFTGSGSGTDFTLTISSVKAEDLAVYYCQQYYRYHTFGTGTKLEIKRTVAAPSVFIFPPSDEQLKSGTASVVCLLNNFYPREAKVQWKVDNALQSGNSQESVTEQDSKDSTYSLSSTLTLSKADYEKHKVYACEVTHQGLSSPVTKSFNRGEC
heavy 2: EVQLVQSGAEVKKPGESLKISCKGSGYSFTSYWISWVRQMPGKGLEWMGIIDPSDSDTRYSPSFQGQVTISADKSISTAYLQWSSLKASDTAMYYCARGDGSTDLDYWGQGTLVTVSSASTKGPSVFPLAPCSRSTSESTAALGCLVKDYFPEPVTVSWNSGALTSGVHTFPAVLQSSGLYSLSSVVTVPSSSLGTKTYTCNVDHKPSNTKVDKRVESKYGPPCPPCPAPEAAGGPSVFLFPPKPKDTLMISRTPEVTCVVVDVSQEDPEVQFNWYVDGVEVHNAKTKPREEQFNSTYRVVSVLTVLHQDWLNGKEYKCKVSNKGLPSSIEKTISKAKGQPREPQVYTLPPSQEEMTKNQVSLWCLVKGFYPSDIAVEWESNGQPENNYKTTPPVLDSDGSFFLYSRLTVDKSRWQEGNVFSCSVMHEALHNHYTQKSLSLSLGK
light 2: EIVLTQSPGTLSLSPGERATLSCRASQSVSSSYLAWYQQKPGQAPRLLIYGASSRATGIPDRFSGSGSGTDFTLTISRLEPEDFAVYYCQQDYGFPWTFGQGTKVEIKRTVAAPSVFIFPPSDEQLKSGTASVVCLLNNFYPREAKVQWKVDNALQSGNSQESVTEQDSKDSTYSLSSTLTLSKADYEKHKVYACEVTHQGLSSPVTKSFNRGEC
notes: Full-length human IgG4 in knob-into-hole format; also called anti-TRGV9×CD123; Vγ9/CD123 bispecific
CD123 [7]
  EC50: 0.43 nM
CD123 [8]
  EC50: 0.354 nM
  EC50 (read off the curve): ~0.05 µg/mL
CD123 [9]
  EC50: 0.43 nM
CD123 [10]
  EC50: 0.354 nM

B6: anti-TRGV9/anti-BCMA bispecific antibody BCV9B106 (B3) (bispecific antibody, human IgG1, kappa, L234A L235A)
scFv-Fc: DIQMTQSPASLSASVGETVTITCRASENIHNYLAWYQQKQGKSPQLLVYNAKTLADGVPSRFSGSGSGTQYSLKINSLQPEDFGNYYCQHFWSYPLTFGAGTKLELKGGSEGKSSGSGSESKSTGGSQGQMQQSGAELVKPGASVKLSCKTSGFTFSSNYISWLKQKPGQSLEWIAWIHGGTGGIGYNQKFTGKAQLTVDTSSTTAYMQFSSLTTEDSAIYYCARRGYGAWFAYWGQGTLVTVSAEPKSSDKTHTCPPCPAPEAAGGPSVFLFPPKPKDTLMISRTPEVTCVVVSVSHEDPEVKFNWYVDGVEVHNAKTKPREEQYNSTYRVVSVLTVLHQDWLNGKEYKCKVSNKALPAPIEKTISKAKGQPREPQVYVYPPSREEMTKNQVSLTCLVKGFYPSDIAVEWESNGQPENNYKTTPPVLDSDGSFALVSKLTVDKSRWQQGNVFSCSVMHEALHNHYTQKSLSLSPGK
heavy: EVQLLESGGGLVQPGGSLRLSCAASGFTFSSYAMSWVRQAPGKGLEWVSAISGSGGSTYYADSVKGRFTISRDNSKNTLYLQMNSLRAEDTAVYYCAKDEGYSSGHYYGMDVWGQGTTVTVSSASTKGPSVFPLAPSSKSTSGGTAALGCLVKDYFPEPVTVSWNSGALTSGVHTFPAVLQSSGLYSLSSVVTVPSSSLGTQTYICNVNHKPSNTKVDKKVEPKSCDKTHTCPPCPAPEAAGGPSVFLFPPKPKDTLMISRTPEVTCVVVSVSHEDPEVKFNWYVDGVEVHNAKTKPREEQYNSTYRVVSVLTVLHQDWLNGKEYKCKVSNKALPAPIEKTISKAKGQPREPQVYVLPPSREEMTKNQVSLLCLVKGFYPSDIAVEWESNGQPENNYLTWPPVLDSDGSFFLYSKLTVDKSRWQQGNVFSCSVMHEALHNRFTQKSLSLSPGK
light: EIVLTQSPGTLSLSPGERATLSCRASQSISSSFLTWYQQKPGQAPRLLIYGASSRATGIPDRFSGGGSGTDFTLTISRLEPEDFAVYYCQHYGSSPMYTFGQGTKLEIKRTVAAPSVFIFPPSDEQLKSGTASVVCLLNNFYPREAKVQWKVDNALQSGNSQESVTEQDSKDSTYSLSSTLTLSKADYEKHKVYACEVTHQGLSSPVTKSFNRGEC
[11]
  EC50 of γδ T-cell mediated cytotoxicity of H929 tumor cells: 33.7 nM

B7: anti-TRGV9/anti-BCMA bispecific antibody (HC1: VG9B420-LH-scFv; HC2: BCMA-Fab (BCMB519-Fab)) (BCV9B71.001) (bispecific antibody, human IgG1, kappa, L234A L235A)
scFv: EIVMTQSPGTLSLSPGDRATLSCRASQSVASSYLAWYQQKPGQSPRLLIYGASSRATGIPDRFSGSGSGTDFTLTISRLEPEDFAVYYCQQYGSSPPYTFGQGTRLEIKGGSEGKSSGSGSESKSTGGSEVQLVESGGGLVKPGGSLRLSCSASGFTFSNYDMNWVRQAPGKGLEWVSSISSSSSYIYYADSVKGRFTISRDNAKNSLYLQMNSLRAEDTAVYHCARDVGVTTDYYYYGMDVWGQGTMVTVSSEPKSSDKTHTCPPCPAPEAAGGPSVFLFPPKPKDTLMISRTPEVTCVVVSVSHEDPEVKFNWYVDGVEVHNAKTKPREEQYNSTYRVVSVLTVLHQDWLNGKEYKCKVSNKALPAPIEKTISKAKGQPREPQVYVYPPSREEMTKNQVSLTCLVKGFYPSDIAVEWESNGQPENNYKTTPPVLDSDGSFALVSKLTVDKSRWQQGNVFSCSVMHEALHNHYTQKSLSLSPGK
heavy: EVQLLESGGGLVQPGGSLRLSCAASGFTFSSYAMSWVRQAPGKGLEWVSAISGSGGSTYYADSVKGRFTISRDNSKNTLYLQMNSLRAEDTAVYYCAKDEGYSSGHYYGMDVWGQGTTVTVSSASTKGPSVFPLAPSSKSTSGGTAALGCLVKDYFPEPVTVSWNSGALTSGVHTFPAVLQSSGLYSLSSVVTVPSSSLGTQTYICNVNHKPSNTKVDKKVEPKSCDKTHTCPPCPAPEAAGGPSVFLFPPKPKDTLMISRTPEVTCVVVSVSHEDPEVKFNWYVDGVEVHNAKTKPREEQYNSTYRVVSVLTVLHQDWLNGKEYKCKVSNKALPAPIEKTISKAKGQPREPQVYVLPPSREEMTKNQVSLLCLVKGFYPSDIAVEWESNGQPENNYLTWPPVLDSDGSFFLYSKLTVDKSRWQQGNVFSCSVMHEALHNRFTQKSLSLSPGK
light: B6 light
[12]
  EC50 of γδ T-cell mediated cytotoxicity of H929 tumor cells: 3.2 nM
